Reference: US20050282743A1, “Molecular interactions in cells” (Arbor Vita Corporation, priority 2001, published 2005)
Ends that are not written are not given here. Peptide text beside a SMILES is read from it. * marks the point of attachment. Biotin = O=C1N[C@H]2[C@H](CS[C@H]2CCCCC(=O)*)N1

How the values were obtained:
Assay in all cases: G' assay (10 uM PL peptide), results of TABLE 7 and TABLE 12
Type in all cases: binding
[1] = target: T1, PDZ protein (GST-PDZ fusion) (Homo sapiens, UniProt O75970)
T1 construct: made in house; host or cells: E. coli (DH5alpha, BL21 or JM109)
Outline: (§1)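 Binding classes derive from A450 nm of bound biotin-tagged PL peptide. A score of 5 needs A450 above 4 in more than two repeats.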

[2] = target: T2, PDZ protein (GST-PDZ fusion) (Homo sapiens, UniProt Q6P0Q8)
T2 construct: made in house; host or cells: E. coli (DH5alpha, BL21 or JM109)
Outline: as §1

[3] = target: T3, PDZ protein (GST-PDZ fusion) (Homo sapiens, UniProt Q5TCQ9)
T3 construct: made in house; host or cells: E. coli (DH5alpha, BL21 or JM109)
T3 sequence (Q5TCQ9 1-1481): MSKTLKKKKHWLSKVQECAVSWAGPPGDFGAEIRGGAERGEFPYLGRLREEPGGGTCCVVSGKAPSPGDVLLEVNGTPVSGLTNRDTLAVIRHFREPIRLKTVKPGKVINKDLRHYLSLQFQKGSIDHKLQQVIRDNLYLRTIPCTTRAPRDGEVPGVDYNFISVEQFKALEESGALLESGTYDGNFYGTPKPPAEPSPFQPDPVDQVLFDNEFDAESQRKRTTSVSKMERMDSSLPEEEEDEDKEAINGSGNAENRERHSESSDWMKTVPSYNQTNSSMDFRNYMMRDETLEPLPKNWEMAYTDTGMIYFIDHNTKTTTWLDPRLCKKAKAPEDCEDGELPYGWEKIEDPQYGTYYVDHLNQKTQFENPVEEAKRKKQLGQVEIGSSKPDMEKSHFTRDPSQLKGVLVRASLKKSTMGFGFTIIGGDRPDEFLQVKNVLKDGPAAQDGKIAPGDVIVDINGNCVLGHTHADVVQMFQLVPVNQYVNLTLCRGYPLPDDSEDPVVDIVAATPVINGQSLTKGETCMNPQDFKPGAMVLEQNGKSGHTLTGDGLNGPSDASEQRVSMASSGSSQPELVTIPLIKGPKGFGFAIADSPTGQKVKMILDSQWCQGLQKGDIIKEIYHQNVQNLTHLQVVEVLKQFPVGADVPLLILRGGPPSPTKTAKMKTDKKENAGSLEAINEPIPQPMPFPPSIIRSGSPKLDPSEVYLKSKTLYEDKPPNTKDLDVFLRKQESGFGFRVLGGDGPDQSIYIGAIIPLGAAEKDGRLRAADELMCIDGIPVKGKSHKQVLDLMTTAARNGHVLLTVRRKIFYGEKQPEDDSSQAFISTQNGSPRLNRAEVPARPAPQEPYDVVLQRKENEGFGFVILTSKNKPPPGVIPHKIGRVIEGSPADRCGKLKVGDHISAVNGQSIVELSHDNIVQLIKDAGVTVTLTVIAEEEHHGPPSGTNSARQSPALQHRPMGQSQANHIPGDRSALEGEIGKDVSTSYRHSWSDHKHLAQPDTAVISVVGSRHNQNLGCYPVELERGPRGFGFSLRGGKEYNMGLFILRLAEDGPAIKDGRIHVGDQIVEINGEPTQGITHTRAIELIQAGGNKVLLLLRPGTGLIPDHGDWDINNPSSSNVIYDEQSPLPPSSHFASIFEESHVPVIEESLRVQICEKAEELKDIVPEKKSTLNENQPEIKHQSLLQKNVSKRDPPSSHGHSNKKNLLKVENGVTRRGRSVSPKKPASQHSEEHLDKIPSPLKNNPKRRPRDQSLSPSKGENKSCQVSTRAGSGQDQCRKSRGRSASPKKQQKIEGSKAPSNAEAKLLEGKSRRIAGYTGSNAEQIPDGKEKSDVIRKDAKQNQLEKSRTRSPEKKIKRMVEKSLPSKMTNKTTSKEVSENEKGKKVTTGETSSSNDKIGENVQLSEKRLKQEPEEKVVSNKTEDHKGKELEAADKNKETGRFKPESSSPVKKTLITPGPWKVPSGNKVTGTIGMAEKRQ
Outline: as §1

[4] = PDZ KIAA807, PDZ Domain not given

T1 sequence (O75970 whole entry, the tested form may be a part): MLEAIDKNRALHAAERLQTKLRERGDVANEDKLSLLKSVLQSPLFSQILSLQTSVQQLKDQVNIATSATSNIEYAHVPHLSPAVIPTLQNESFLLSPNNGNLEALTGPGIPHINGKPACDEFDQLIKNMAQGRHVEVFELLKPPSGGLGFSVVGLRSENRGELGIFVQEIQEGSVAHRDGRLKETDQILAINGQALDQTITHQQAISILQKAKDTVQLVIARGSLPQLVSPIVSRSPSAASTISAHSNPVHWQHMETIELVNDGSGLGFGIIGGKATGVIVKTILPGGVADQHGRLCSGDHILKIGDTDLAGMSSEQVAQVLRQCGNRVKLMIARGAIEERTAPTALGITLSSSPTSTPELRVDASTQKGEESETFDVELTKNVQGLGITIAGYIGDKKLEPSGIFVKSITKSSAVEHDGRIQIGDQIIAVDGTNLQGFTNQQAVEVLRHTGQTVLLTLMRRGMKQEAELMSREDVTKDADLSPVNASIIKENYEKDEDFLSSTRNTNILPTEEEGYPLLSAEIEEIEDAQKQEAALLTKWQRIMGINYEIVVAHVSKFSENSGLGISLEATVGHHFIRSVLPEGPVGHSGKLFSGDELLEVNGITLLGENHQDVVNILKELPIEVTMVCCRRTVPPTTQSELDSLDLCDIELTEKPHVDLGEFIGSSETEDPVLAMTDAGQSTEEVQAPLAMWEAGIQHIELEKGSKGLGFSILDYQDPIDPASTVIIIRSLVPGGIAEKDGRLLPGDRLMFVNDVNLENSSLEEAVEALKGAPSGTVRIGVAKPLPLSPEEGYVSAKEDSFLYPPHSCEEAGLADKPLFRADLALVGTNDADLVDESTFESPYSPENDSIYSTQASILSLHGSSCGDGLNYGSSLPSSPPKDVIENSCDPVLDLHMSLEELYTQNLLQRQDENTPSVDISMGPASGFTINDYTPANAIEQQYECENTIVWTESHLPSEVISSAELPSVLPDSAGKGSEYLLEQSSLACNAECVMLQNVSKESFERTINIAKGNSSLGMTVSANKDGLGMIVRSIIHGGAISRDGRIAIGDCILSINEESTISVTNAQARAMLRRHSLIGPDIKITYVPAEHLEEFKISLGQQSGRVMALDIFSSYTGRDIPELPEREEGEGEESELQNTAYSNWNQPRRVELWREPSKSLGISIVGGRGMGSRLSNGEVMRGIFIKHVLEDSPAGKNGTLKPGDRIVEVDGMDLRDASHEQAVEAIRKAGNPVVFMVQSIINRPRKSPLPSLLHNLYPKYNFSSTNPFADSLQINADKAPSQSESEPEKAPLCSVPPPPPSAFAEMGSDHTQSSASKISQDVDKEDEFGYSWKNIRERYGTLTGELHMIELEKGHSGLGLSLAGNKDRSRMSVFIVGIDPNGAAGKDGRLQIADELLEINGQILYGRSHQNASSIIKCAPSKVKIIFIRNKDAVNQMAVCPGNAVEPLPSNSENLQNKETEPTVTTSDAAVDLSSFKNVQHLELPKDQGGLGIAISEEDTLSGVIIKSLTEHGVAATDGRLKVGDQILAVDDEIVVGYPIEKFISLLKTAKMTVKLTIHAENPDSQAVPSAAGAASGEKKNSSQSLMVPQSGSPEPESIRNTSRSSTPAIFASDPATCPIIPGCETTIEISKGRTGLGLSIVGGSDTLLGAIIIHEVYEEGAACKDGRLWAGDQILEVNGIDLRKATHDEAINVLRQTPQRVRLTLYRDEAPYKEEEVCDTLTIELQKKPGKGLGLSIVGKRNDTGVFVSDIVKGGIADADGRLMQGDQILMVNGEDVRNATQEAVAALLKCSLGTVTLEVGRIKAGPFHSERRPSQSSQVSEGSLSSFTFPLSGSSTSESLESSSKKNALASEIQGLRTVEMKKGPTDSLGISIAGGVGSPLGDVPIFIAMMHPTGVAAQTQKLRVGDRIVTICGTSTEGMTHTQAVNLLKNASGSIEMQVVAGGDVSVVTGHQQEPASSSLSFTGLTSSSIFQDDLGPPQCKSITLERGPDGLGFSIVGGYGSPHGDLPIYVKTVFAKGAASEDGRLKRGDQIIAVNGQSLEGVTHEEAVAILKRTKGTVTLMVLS
T2 sequence (Q6P0Q8 whole entry, the tested form may be a part): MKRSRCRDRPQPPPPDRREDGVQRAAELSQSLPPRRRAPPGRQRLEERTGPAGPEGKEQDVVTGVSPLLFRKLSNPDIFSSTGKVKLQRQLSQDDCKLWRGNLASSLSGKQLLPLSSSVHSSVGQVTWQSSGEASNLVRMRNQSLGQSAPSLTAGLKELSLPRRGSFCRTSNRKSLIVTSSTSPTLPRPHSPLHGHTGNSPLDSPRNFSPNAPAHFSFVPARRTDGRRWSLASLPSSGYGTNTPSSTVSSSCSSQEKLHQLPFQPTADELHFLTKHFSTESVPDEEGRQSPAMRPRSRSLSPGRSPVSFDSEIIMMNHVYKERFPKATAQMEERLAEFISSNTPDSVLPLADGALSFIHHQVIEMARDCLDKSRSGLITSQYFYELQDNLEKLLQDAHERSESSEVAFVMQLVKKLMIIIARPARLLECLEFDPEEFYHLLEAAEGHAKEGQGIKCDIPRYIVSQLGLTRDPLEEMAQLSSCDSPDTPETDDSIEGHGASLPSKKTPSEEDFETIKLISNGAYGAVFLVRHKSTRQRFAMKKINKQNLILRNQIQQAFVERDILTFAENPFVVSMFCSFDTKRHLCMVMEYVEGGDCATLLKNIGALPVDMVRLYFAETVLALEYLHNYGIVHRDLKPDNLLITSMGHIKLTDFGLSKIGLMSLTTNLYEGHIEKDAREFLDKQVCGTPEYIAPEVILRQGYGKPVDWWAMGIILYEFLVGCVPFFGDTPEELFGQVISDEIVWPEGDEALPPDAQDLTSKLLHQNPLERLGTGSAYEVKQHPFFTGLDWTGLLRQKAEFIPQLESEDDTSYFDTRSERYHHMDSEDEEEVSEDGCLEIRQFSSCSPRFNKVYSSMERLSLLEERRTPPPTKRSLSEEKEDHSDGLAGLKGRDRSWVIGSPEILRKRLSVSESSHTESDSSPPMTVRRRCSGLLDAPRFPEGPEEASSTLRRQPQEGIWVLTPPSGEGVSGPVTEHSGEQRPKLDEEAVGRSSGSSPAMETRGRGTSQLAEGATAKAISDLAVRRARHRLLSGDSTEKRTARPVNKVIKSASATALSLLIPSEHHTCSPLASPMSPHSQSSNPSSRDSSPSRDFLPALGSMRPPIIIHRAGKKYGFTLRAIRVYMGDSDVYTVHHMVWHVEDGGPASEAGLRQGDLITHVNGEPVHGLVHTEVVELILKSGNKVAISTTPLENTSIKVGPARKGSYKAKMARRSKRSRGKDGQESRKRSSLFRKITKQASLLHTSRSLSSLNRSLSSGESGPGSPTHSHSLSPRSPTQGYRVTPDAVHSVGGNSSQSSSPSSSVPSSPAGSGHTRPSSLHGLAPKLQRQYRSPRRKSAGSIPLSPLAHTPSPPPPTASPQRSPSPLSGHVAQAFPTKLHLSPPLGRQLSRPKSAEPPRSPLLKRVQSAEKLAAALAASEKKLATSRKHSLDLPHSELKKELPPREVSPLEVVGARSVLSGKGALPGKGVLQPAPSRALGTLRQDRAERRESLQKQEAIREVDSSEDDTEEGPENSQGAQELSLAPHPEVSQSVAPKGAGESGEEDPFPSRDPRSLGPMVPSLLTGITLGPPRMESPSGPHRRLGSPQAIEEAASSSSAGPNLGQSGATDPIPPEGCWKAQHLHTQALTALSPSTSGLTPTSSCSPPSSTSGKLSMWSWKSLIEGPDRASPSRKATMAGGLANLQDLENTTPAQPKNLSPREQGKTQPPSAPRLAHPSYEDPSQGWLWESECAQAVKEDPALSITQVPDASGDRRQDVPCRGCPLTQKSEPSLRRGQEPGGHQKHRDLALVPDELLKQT

| Compound | Classification ([1]; PDZ MUPP-1, PDZ Domain 3) | Classification ([1]; PDZ MUPP-1, PDZ Domain 7) | Classification ([1]; PDZ MUPP-1, PDZ Domain 9) | Classification ([2]; PDZ KIAA0807(S), PDZ Domain 1) | Classification ([1]; PDZ MUPP-1, PDZ Domain 11) | Classification [2, 4] | also measured |
| --- | --- | --- | --- | --- | --- | --- | --- |
| CC[C@H](C)[C@H](NC(=O)[C@H](Cc1ccc(O)cc1)NC(=O)[C@H](CC(C)C)NC(=O)[C@H](CCC(N)=O)NC(=O)[C@H](Cc1c[nH]cn1)NC(=O)[C@H](CO)NC(=O)[C@H](C)NC(=O)[C@H](CC(C)C)NC(=O)[C@@H](NC(=O)[C@H](CC(=O)O)NC(=O)[C@H](CCSC)NC(=O)[C@H](Cc1ccccc1)NC(=O)[C@@H]1CCCN1C(=O)[C@H](CCCNC(=N)N)NC(=O)[C@@H](NC(=O)[C@H](CC(C)C)NC(=O)[C@H](CC(N)=O)NC(=O)[C@H](CC(=O)O)NC(=O)[C@@H](NC(=O)[C@H](CO)NC(=O)CCCC[C@@H]1SC[C@@H]2NC(=O)N[C@@H]21)[C@@H](C)O)C(C)C)[C@@H](C)O)C(=O)O [presenilin-2] (Biotin-STDNLVRPFMDTLASHQLYI-OH; C-terminus assumed) | 3 (A450 nm 2-3) | 2 (A450 nm 1-2) | 3 (A450 nm 2-3) | 1 (A450 nm 0-1) |  |  |  |
| CC[C@H](C)[C@H](NC(=O)[C@H](Cc1c[nH]cn1)NC(=O)[C@H](C)NC(=O)[C@H](C)NC(=O)[C@H](CO)NC(=O)[C@@H]1CCCN1C(=O)[C@H](CCCNC(=N)N)NC(=O)[C@H](CC(=O)O)NC(=O)[C@H](CCCCN)NC(=O)[C@@H]1CCCN1C(=O)[C@H](CC(=O)O)NC(=O)[C@H](CCC(=O)O)NC(=O)CCCC[C@@H]1SC[C@@H]2NC(=O)N[C@@H]21)C(=O)N[C@H](C(=O)N[C@@H](CCC(=O)O)C(=O)N[C@@H](C)C(=O)N[C@@H](CC(C)C)C(=O)N[C@@H](CCC(=O)O)C(=O)N[C@H](C(=O)N[C@@H](CC(=O)O)C(=O)N[C@H](C(=O)O)C(C)C)[C@@H](C)O)C(C)C [PDZ-binding kinase (PBK)] (Biotin-EDPKDRPSAAHIVEALETDV-OH; C-terminus assumed) |  |  |  |  |  |  | Classification ([3]; PDZ KIAA1634, PDZ Domain 2): 3 (A450 nm 2-3) |
| KTMPAATYRLLTGQEQPVYL (Biotin-KTMPAATYRLLTGQEQPVYL) [MINT-3] | 1 (A450 nm 0-1) |  |  | 1 (A450 nm 0-1) | 2 (A450 nm 1-2) | 1 (A450 nm 0-1) |  |
| CKR5_HUMAN (ERASSVYTRSTGEQEISVGL) |  |  |  |  |  |  | Classification ([3]; PDZ KIAA1634, PDZ Domain 1): 1 (A450 nm 0-1) |
| A2AC_HUMAN (Modified) (Biotin-DFRPSFKHILFRRARRGFRQ; not fully specified) |  |  |  |  |  |  | Classification ([1]; PDZ MUPP-1, PDZ Domain 4): 3 (A450 nm 2-3) |
| CC(C)C[C@H](NC(=O)[C@H](C)NC(=O)[C@@H](NC(=O)[C@@H](NC(=O)[C@H](Cc1c[nH]cn1)NC(=O)[C@H](CC(C)C)NC(=O)CNC(=O)[C@H](CCC(N)=O)NC(=O)CNC(=O)CNC(=O)[C@H](C)NC(=O)[C@H](C)NC(=O)[C@H](CCCNC(=N)N)NC(=O)[C@H](C)NC(=O)[C@H](CO)NC(=O)[C@H](CC(=O)O)NC(=O)[C@H](CC(=O)O)NC(=O)[C@H](Cc1c[nH]c2ccccc12)NC(=O)[C@H](C)NC(=O)CCCC[C@@H]1SC[C@@H]2NC(=O)N[C@@H]21)C(C)C)[C@@H](C)O)C(=O)O [LPAP] (Biotin-AWDDSARAAGGQGLHVTAL-OH; C-terminus assumed) |  |  |  |  |  |  | Classification ([2]; PDZ KIAA807): 5 (A450 nm of 4 more than 2× repeated) |
| A2AA_HUMAN (modified) (Biotin-HDFRRAFKKILARGDRKRIV; not fully specified) |  |  |  | 1 (A450 nm 0-1) |  |  | Classification ([1]; PDZ MUPP-1, PDZ Domain 6): 2 (A450 nm 1-2); Classification ([1]; PDZ MUPP-1, PDZ Domain 8): 1 (A450 nm 0-1); Classification ([1]; PDZ MUPP-1, PDZ Domain 13): 1 (A450 nm 0-1) |
| CC[C@H](C)[C@H](NC(=O)[C@H](Cc1ccc(O)cc1)NC(=O)[C@@H](NC(=O)[C@@H]1CCCN1C(=O)[C@H](CCC(N)=O)NC(=O)[C@H](CCC(=O)O)NC(=O)[C@H](CCC(N)=O)NC(=O)[C@H](C)NC(=O)[C@@H](NC(=O)[C@H](CC(C)C)NC(=O)[C@H](CC(C)C)NC(=O)[C@H](CCCNC(=N)N)NC(=O)[C@H](Cc1ccc(O)cc1)NC(=O)[C@H](CCSC)NC(=O)[C@H](C)NC(=O)[C@H](C)NC(=O)[C@@H]1CCCN1C(=O)[C@H](CCSC)NC(=O)[C@@H](NC(=O)[C@H](CCCCN)NC(=O)CCCC[C@@H]1SC[C@@H]2NC(=O)N[C@@H]21)[C@@H](C)O)[C@@H](C)O)C(C)C)C(=O)O [MINT-1] (Biotin-KTMPAAMYRLLTAQEQPVYI-OH; C-terminus assumed) | 3 (A450 nm 2-3) | 3 (A450 nm 2-3) | 3 (A450 nm 2-3) | 5 (A450 nm of 4 more than 2× repeated) | 5 (A450 nm of 4 more than 2× repeated) | 4 (A450 nm 3-4) | Classification ([1]; PDZ MUPP-1, PDZ Domain 1): 1 (A450 nm 0-1); Classification ([1]; PDZ MUPP-1, PDZ Domain 2): 1 (A450 nm 0-1); Classification ([1]; PDZ MUPP-1, PDZ Domain 5): 2 (A450 nm 1-2); Classification ([1]; PDZ MUPP-1, PDZ Domain 10): 1 (A450 nm 0-1) |
| KTMPAAMFRLLTGQETPLYI (Biotin-KTMPAAMFRLLTGQETPLYI) [MINT-2] | 1 (A450 nm 0-1) | 1 (A450 nm 0-1) | 1 (A450 nm 0-1) | 4 (A450 nm 3-4) | 5 (A450 nm of 4 more than 2× repeated) | 3 (A450 nm 2-3) | Classification ([1]; PDZ MUPP-1, PDZ Domain 2): 1 (A450 nm 0-1) |
| PPATPSPRLALPAHHNATRL (Biotin-PPATPSPRLALPAHHNATRL) [Na+/Pi cotransporter 2] |  |  |  | 5 (A450 nm of 4 more than 2× repeated) |  | 5 (A450 nm of 4 more than 2× repeated) | Classification ([1]; PDZ MUPP-1, PDZ Domain 10): 1 (A450 nm 0-1); Classification ([1]; PDZ MUPP-1, PDZ Domain 13): 1 (A450 nm 0-1) |
| GPVPGEPAKPKTSAHHATFV (Biotin-GPVPGEPAKPKTSAHHATFV) |  |  |  |  | 1 (A450 nm 0-1) |  |  |
| CC[C@H](C)[C@H](NC(=O)[C@H](C)NC(=O)[C@H](CC(C)C)NC(=O)[C@H](Cc1c[nH]c2ccccc12)NC(=O)[C@H](Cc1c[nH]cn1)NC(=O)[C@H](CCC(N)=O)NC(=O)[C@H](CC(C)C)NC(=O)[C@H](CCC(N)=O)NC(=O)[C@H](Cc1ccccc1)NC(=O)[C@H](CCC(N)=O)NC(=O)[C@H](CCCNC(=N)N)NC(=O)[C@@H](NC(=O)[C@H](CC(=O)O)NC(=O)[C@H](CCCNC(=N)N)NC(=O)[C@H](CCC(N)=O)NC(=O)[C@H](C)NC(=O)[C@@H](NC(=O)[C@H](CC(C)C)NC(=O)[C@H](Cc1c[nH]cn1)NC(=O)[C@H](Cc1c[nH]cn1)NC(=O)CCCC[C@@H]1SC[C@@H]2NC(=O)N[C@@H]21)C(C)C)[C@@H](C)CC)C(=O)O [noradrenaline transporter] (Biotin-HHLVAQRDIRQFQLQHWLAI-OH; C-terminus assumed) | 4 (A450 nm 3-4) | 3 (A450 nm 2-3) | 3 (A450 nm 2-3) |  |  |  |  |
| LNETTETQRTLLNGDLQTSI (Biotin-LNETTETQRTLLNGDLQTSI) [SSTR2 (somatostatin recepor 2)] |  |  |  | 2 (A450 nm 1-2) |  | 2 (A450 nm 1-2) |  |
